Data published in US12139534B2, “Methods and compositions for decreasing soluble immune receptor CD28” (BIOND BIOLOGICS LTD., priority 2018, dated 2024).

Tests used:
mCD28 [1] = molecular target: T1, mCD28 (Homo sapiens, UniProt P10747); assay: CD86 blocking FACS on HEK293 cells stably transfected with human CD28; type: binding; conditions: CD86-Fc 5 μg/mL; antibody 20 μg/mL
T1 construct: expressed in transfected cells
Procedure: CD86 blocking FACS—0.5×10^6 HEK293 cells stably transfected with human CD28 were incubated with 5 μg/mL CD86-Fc (R&D systems, Cat. No. 141-B2) without or with anti CD28 antibodies (20 μg/mL) for 30 min in room temperature. Cells were washed and taken for secondary binding using anti-human heavy and light chains antibody conjugated to fluorophore at 1:5000 dilution for 20 min on ice.

recombinant mouse CD28 = molecular target: T2, recombinant mouse CD28 (Mus musculus, UniProt P31041); assay: Direct ELISA on recombinant mouse CD28; type: binding
T2 construct: ELISA assay on increasing concentrations of mouse sCD28; purchased R&D 483-CD

recombinant human CD28 = molecular target: T3, recombinant human CD28 (Homo sapiens, UniProt P10747); assay: Direct CD28 ELISA on recombinant human CD28; type: binding
T3 construct: recombinant human CD28 lacking the transmembrane and cytoplasmic domains; purchased R&D 342-CD

sCD28 = assay: Simulated sweeping of soluble CD28 from plasma with antibody coated magnetic beads; parameters: species or system human; conditions: cancer patient plasma; 0.125-2 μg antibody on beads; 37° C. 2 hours
Procedure: Simulated sweeping of soluble CD28 from plasma of cancer patient. Antibodies or recombinant proteins were coated on tosyl-activated magnetic beads (Invitrogen, Cat. No. DY-14203) as described by manufacturer protocol. […] The mixture was incubated in a thermomixer for 2 hr, 1000 RPM at 37° C., followed by removal of the beads using a DynaMag magnet (Invitrogen, Cat. No. 12321D) and the samples were examined using CD28 specific ELISA.
Varying amounts (0.125-2 μg) of antibodies #1 and #2 were loaded onto tosyl-activated magnetic beads according to the manufacturer's protocol (Thermo Fisher Scientific). The loaded beads were then added to plasma samples from a cancer patient, and the mixture was incubated in a thermomixer at 37° C. for 2 hours at 1000 RPM. The beads were isolated and removed from the plasma with a magnet and the amount of sCD28 remaining in the serum was measured by ELISA.
Antibody #1 was further tested on various cancer samples (melanoma, colorectal and ovarian) and compared to three B7 molecules which are known ligands of CD28. About 1.5 μg of antibody #1, CD80, CD86 and ICOSL were each loaded onto tosyl-activated magnetic beads and the beads were mixed with plasma as before. A colorectal sample (FIG. 16C), as well as two melanoma samples (FIG. 16D-E), an ovarian sample (FIG. 16F) and a sample from a healthy donor (FIG. 16G) were all tested.

mCD28 [2] = molecular target: T1, mCD28; assay: FACS binding to mCD28 on naïve CD3 T cells; conditions: antibody 20 μg/mL
Procedure: Flow Cytometry—Generally, cells were kept on ice during all steps. Prior to staining, 5×10^5 cells were blocked with 50 μg/mL human IgG (Sigma, Cat. No. 14506) in FACS buffer (PBS with 0.1% BSA) for 15 min. Antibodies were used at concentrations recommended by the manufacturer and incubated for 30 min. in the dark. Incubations were done in a volume of 100 μL in 96-well U bottom plates. Cells were washed twice with 200 μL of FACS buffer and transferred to FACS tubes in 150 μL of FACS buffer for analysis. Cells were analyzed on a Gallios Flow Cytometer (Beckman Coulter) using the Kaluza for Gallios Flow Cytometry Acquisition Software.
Lastly, the ability of antibodies #1-3 to bind to mCD28 at all was examined. While it is not essential that a sCD28 antibody not bind mCD28 it is advantageous. Such an antibody could be used for specific detection of the soluble protein, and if used therapeutically would have no effect on the membranal form. Naïve isolated CD3 T cells were evaluated by FACs to assay mCD28 binding. Cells were incubated with antibodies #1-3 (20 μg/mL dark grey histograms) or isotype controls (mIgG, 20 μg/mL, light grey histograms). Binding detection was performed with Alexa Fluor 647-conjugated goat anti mouse secondary antibody.

[3] = system: isolated CD3 human T cells; assay: CD3 T cells stimulation with anti-CD3 OKT3, IFN gamma secretion; type: cell-based; conditions: anti-CD3 stimulation; CD28.2 2.0 μg/mL, antibodies 0.1-10 μg/mL
Procedure: T cells stimulation with OKT3—0.1×10^6 isolated CD3 T cells (from healthy donors) were stimulated with indicated amount of anti-CD3 clone OKT3 for 48-72 hr at 37° C. When stated recombinant human CD80-Fc (2 μg/mL, R&D system) was added in soluble form. Antibodies to CD28 or controls were added at the indicated concentration in soluble form.
CD80 is one of the two main ligands for mCD28 along with CD86. The extracellular domain of CD80 fused to an Fc moiety has been used as an immune stimulatory molecule and is under investigation as a cancer therapy. In order to examine the effect of sCD28 on CD80-Fc efficacy, isolated CD3 human T cells were stimulated with plate bound anti-CD3 antibody (OKT3, 2 μg/mL) in the presence of 2 μg/mL soluble recombinant human CD80-Fc.

T2 sequence (P31041 20-150 limits assumed): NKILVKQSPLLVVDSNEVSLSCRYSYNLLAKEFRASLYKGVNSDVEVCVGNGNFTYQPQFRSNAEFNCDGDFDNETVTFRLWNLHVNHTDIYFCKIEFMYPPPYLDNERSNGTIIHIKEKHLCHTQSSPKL

binding to mouse CD28 (recombinant mouse CD28): able to bind mouse CD28
binding to sCD28 (recombinant human CD28; immobilized recombinant human sCD28): much stronger binding to sCD28
binding to mCD28 on the cell surface (mCD28 [2]): do not bind CD28 on the cell surface
B1: antibody #2: sCD28 binding (sweeping) antibody; heavy chain SEQ ID NO: 46, light chain SEQ ID NO: 48 (antibody)
heavy: QVQLQQSGAELARPGASVKLSCKASGYTFTSYWMQWIKKRPGQGLEWIGAIYPGDGDTRYTQKFKGKATLTADKSSTTAYMQLSSLASEDSAVYFCARNYRYSSFGYWGQGTLVTVSAAKTTPPSVYPLAPGCGDTTGSSVTLGCLVKGYFPESVTVTWNSGSLSSSVHTFPALLQSGLYTMSSSVTVPSSTWPSQTVTCSVAHPASSTTVDKKLEPSGPISTINPCPPCKECHKCPAPNLEGGPSVFIFPPNIKDVLMISLTPKVTCVVVDVSEDDPDVQISWFVNNVEVHTAQTQTHREDYNSTIRVVSTLPIQHQDWMSGKEFKCKVNNKDLPSPIERTISKIKGLVRAPQVYILPPPAEQLSRKDVSLTCLVVGFNPGDISVEWTSNGHTEENYKDTAPVLDSDGSYFIYSKLNMKTSKWEKTDSFSCNVRHEGLKNYYLKKTISRSPGK
light: DIVMTQSPSSLTVTAGEKVTLSCKSSQSLLNSGNQKNYLTWYQQKPGQPPQLLIYWASTRESGVPDRFTGSGSGTDFTLTISSVQAEDLAVYYCQSDYSYPLTFGAGTKLELKRADAAPTVSIFPPSSEQLTSGGASVVCFLNNFYPKDINVKWKIDGSERQNGVLNSWTDQDSKDSTYSMSSTLTLTKDEYERHNSYTCEATHKTSTSPIVKSFNRNEC
CD86 binding to mCD28 (mCD28 [1]): none of antibody #1 (FIG. 15B), antibody #2 (FIG. 15C), or antibody #3 (FIG. 15D) blocked binding of CD86 to mCD28
relationship of signal to concentration (recombinant human CD28): a linear relationship to increasing antibody concentrations over the entire range examined
removal of sCD28 from plasma (sCD28): capable of binding and removing sCD28 from plasma
IFNγ secretion (agonism) [3]: no effect on IFN secretion
